The values that follow are results of earlier work, collected in PMC11698047.

Read-outs that look alike come from different tables or passages of the source.

What is called Kd is a measure of binding affinity in units of concentration.

Data set [1] addresses H-Ras (Homo sapiens) (UniProt P01112).
Data set [2] addresses Ras (Homo sapiens) (UniProt P01112).
For data set [3] the target is unchanged. This is another data set of the same source.
In data set [4] the target is M-Ras (Homo sapiens) (UniProt O14807).
Data set [5] concerns the target Rap2 (Homo sapiens) (UniProt P10114).
The target in data set [6] is R-Ras (Homo sapiens) (UniProt P10301).
The target in data set [7] is TC21 (Homo sapiens) (UniProt P62070).
Data set [8] concerns the target H-Ras (Homo sapiens) (UniProt P01112). The source holds these as a separate data set.
Data set [9] addresses Rap1 (Homo sapiens) (UniProt P62834).

Chain of Afadin RA1 (P55196 39-133): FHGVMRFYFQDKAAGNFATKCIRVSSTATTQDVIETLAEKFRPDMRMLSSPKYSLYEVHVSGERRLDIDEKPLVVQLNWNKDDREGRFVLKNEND
Chain of Afadin RA1 without N-terminal α-helix (P55196 39-133): as above
Chain of Afadin RA1 with N-terminal α-helix (P55196 1-141): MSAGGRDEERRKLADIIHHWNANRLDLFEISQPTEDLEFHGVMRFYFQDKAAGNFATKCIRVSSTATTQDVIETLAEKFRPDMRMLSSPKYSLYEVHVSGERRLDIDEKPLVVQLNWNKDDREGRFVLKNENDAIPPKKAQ
Chain of Afadin RA2 (P55196 246-348): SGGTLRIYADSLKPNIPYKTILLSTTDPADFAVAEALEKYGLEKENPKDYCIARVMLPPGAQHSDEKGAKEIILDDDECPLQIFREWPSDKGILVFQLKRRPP
Chain of Rap1 (Homo sapiens) (P62834 1-181): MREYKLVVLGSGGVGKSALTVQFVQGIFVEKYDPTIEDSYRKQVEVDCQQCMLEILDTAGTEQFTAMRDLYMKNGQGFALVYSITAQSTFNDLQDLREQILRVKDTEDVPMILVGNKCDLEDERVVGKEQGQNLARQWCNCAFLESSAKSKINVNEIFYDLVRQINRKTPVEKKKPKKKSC
Chain of R-Ras (Homo sapiens) (P10301 1-215): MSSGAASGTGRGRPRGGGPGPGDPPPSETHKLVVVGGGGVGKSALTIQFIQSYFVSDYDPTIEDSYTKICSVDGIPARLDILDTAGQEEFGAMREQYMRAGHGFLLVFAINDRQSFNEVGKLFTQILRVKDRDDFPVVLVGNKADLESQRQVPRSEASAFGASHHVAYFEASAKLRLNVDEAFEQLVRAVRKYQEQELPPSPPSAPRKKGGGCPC
Chain of TC21 (Homo sapiens) (P62070 2-201): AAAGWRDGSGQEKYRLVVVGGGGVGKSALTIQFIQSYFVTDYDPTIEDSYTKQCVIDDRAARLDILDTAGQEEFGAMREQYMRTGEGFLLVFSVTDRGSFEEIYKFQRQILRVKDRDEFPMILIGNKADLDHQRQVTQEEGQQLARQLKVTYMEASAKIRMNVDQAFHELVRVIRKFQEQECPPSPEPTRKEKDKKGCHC
Chain of Rap2 (Homo sapiens) (P10114 1-180): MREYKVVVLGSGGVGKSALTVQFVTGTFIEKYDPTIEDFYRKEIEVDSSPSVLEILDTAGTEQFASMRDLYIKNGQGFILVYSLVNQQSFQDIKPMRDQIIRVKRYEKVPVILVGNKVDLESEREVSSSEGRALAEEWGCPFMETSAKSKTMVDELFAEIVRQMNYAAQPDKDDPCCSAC

Afadin RA2 (from UniProt P55196): the Kd in [1] is 30 µM.

For “Afadin RA1 without N-terminal α-helix (from UniProt P55196)”, the dissociation constant Kd in [2] is 17.8 µM.

Consider “Afadin RA1 with N-terminal α-helix (from UniProt P55196)”, for which the Kd in data set [3] was 4.1 µM.

Regarding Afadin RA1 (from UniProt P55196), the dissociation constant Kd in data set [4] is 2.5 µM; in data set [5], 2.5 µM; in data set [6] it was 16 µM; in data set [7], 16 µM; in [8] it was 2.5 µM; in [9], 0.24 µM.
